Assay results from patent US20180231562A1 (UCB, published 2018).

Legend:
[1] = target: T1, human TNFα in complex with compound (39) (human, UniProt P01375 77-233); test: SPR (BIAcore T200), against apo human TNFα
T1 construct: also called Human TNFα + compound (39); compound-distorted human TNFα

[2] = target: T2, human TNFα in complex with compound (15) (human, UniProt P01375 77-233); test: SPR (BIAcore T200), against apo human TNFα
T2 construct: also called Human TNFα + compound 15; Human TNFα + compound (15)
T2 sequence (P01375 77-233 limits assumed, one chain of several): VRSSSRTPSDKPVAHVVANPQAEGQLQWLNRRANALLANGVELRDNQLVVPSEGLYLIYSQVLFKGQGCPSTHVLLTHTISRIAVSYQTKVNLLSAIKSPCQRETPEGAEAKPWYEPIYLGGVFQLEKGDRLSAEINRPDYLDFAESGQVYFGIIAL

T1 sequence (P01375 77-233 limits assumed, one chain of several): as above

B1: CA185_01979 (antibody, mouse IgG1, kappa, V domains shown)
VH: EVHLVESGPGLVKPSQSLSLTCSVTGYSITNSYWDWIRKFPGNKMEWMGYINYSGSTGYNPSLKSRISISRDTSNNQFFLQLNSITTEDTATYYCARGTYGYNAYHFDYWGRGVMVTVSS
VL: DIQMTQSPASLSASLEEIVTITCQASQDIGNWLSWYQQKPGKSPHLLIYGTTSLADGVPSRFSGSRSGTQYSLKISGLQVADIGIYVCLQAYSTPFTFGSGTKLEIKR
notes: also called CA185_01979.0; CA185_1979
- selective binding over apo human TNFα (log) [1]: > 2 log
- selective binding over apo human TNFα (log) [2]: > 2 log
